# Data: PMC5946489, “Inactivation of the tight junction gene CLDN11 by aberrant hypermethylation modulates tubulins polymerization and promotes cell migration in nasopharyngeal carcinoma”
# Molecular target: GST-GATA1 (UniProt P15976 1-413)
# Assay: EMSA; GATA1 antibody used for supershift; Pull-down: probes immobilised on M-280 beads in 5 mM Tris-HCl pH 7.5, 0.5 mM EDTA, 1 M NaCl; 100 ug nuclear extract; washes in binding buffer (composition not given) with 0.5% NP40. EMSA as described previously (ref. 9); temperature not stated
# Conditions: protein: commercial; tags: GST; label: 5'-biotin; blunt
# GST-GATA1, sequence (P15976 whole entry): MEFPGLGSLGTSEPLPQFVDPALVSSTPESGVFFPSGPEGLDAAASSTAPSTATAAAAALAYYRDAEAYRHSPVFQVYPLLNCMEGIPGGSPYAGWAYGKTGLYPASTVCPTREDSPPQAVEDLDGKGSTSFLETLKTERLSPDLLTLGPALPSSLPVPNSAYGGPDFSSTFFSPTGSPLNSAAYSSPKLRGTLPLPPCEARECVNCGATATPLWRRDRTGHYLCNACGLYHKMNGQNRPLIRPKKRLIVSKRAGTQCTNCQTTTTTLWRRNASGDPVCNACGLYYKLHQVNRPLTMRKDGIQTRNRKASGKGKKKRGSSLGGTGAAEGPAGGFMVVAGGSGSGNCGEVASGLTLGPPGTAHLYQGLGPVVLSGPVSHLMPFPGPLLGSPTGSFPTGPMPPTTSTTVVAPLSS
binder,measurement,value
GATA1/2 WT probe (dsDNA) DNA 1: CTGCCGCCGATTGGTGCTCGC DNA 2: GCGAGCACCAATCGGCGGCAG,binding result,binds
